The nature of this data set: soluble fraction after stress (log2 fold change); higher = more stays soluble; pooled small domains, quantitative proteomics. To be noted: stress: pH 4. The method, boiled down:
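Aggregation propensity is estimated from the fold change in each domain's soluble amount after acid stress. Pooled small-domain libraries were stressed at pH 4, and higher log2 values mean more stayed soluble.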
On to “HMSKEDDSLVVTFRRMLLEEVDLHELSRIDANQRRARLERVIAHLVSREGVILSASERNQLVRRVVDEAV”, for which the “soluble fraction (log2)” value is -0.801. For “HMSKEEAIQAMKEGKKVTHRFFSSDEWMTIENGFLLLEDGVRISLEDFFNFRSDSLWDNGYELYNPH” the value was -0.768; for “HMSKFSDTLVYLRKRAGFSQQELADKMEVSRSLVGMYESGQRMPSYEMLEALADIFNVNIDFLTGH”, -0.586.

For the sequence “HMSKIRSEINKFSSDADKPILEWLFERYHWASQWRFVARFSEQRYGVLSYEINRVWEPTIEGRALYDQL”, the “soluble fraction (log2)” value is -1.45.

As to “HMSKKMLASIFDTISGIGKKRLKKIWDNYTSLNELKDDSLENIYAKTQIPINLITKIKEKLE”, the “soluble fraction (log2)” value was at least 0.43.

For “HMSKKMTNEEILNFLKKVLIKHGKISGFIIDEDDNGPSSSVVASRFGGLLNAYKLINYTPER”, the “soluble fraction (log2)” value was at least 0.43. Then “HMSKMTLGENLRLLRREKGLSQEQVAQTLFVARQTISKWENGQAEPGVESLKALAKLYGVSLDRLVGA”, with -0.324; and “HMSKPLEVFKLTSEPFGFSFNTALGRSYTVEATGDLGVWKAVELFQGSGGEIRFTAKPTSSGGAQFFRVFV”, with -0.225. Then “HMSKPVYILINKPKGFLASSTDKKVKKSVNDLINISNLNKIYPFDNMGRTSSGLLLLSNDLYFKKHFKDKI”, with 0.209; and “HMSKQKRIKYFLSILNIKSIKQFRKKDLDYFYQKRFIEIQKSSKDKKLVSNQLIELNAAKEYLDEIDFEN”, with 0.295. Regarding “HMSKQQVRSILDDIPNIGETRRKALMRQFQSLEKIREASVGQLREVDGMNEKAAQSVYQFFHK”, the “soluble fraction (log2)” value was 0.108.

Regarding “HMSKQVDVVIYILENTKAADNTYIGTYRKTADGAGVSLDTATKVMRKLQENNFIKKVQNGVYQISPLIMM”, the “soluble fraction (log2)” value is -0.519.

With “HMSKRDDLLDQASEWLAKLDRDLTVVEERELKAWLGESAAHRETFIQMAKLWDKMESLSRLTDL”, the “soluble fraction (log2)” value is -1.06. Then “HMSKSVEQRRQQIVAWVKEHGQSQVEDLAVRFATSEVTIRKDLAALSQQGLLIRQFGGAVPVPA”, with 0.119. Then “HMSKTQYTFKEVGSQFQLFAPSTKHTIMISADHPKYGWLTNQDQGRVINVYDTGKMTSSQDYYGLYKEVT”, with -0.589; and “HMSKTQYTFREVGSQFELHAPSTNHKIMVDANHPKYGWLSSQEAGRVINVYESGKMTSSQDYYGLYKQS”, with -0.427.

Turning to “HMSLANTSVKEMLNDLVKNEEPSKPLSDEALVKIFKEKGVKIARRTVAKYRAELNILPSHLRRT”, the “soluble fraction (log2)” value is -0.116. Then “HMSLAVFLQGLLEEKQLKKADVIRRTGMEPTYGYHIFDGHKKHPARSKVLLLALAMGLTVKEAQHLLYYAG”, with -0.544; and “HMSLDAAAVASKLIKRLSKSPGRRFALDDLAVDVGLPHEQGRPLVRSALELLVRTQQAVEGPPNVFRLFF”, with -0.17; and “HMSLEDMILSLSSRIRRGESLHFRELLVAIETKSGMVTIFMAVLELLKQQVMEMRYEDDDIIFT”, with -0.567.

Regarding “HMSLEEIPLEERLGPGGLDPVAVYDSLPREMRDAFDSGSVSALREFVNALPAEDAARHMKAMVDSGLWVPT”, the “soluble fraction (log2)” value is -0.794. Turning to “HMSLETRRYQLPRTDAQTASGLLRSLSGLPGVREVNLSGEGVAYLKVDSKGFDEQNVIKLLAGE”, the “soluble fraction (log2)” value is -0.0727.

As to “HMSLHSITIPQEFIGAVIGPGGKVIQEIQKQTGTTITITEKDNKGYVDIFGEDKGALDSALARIKEIVAIP”, the “soluble fraction (log2)” value is -0.277. Take “HMSLIDYLNELMNEKNITVAQVAKNSGIGEYVYKIFNGERNAKRDTLVAISFGMHLNFEETQLLLRIA”: the “soluble fraction (log2)” value is -0.98.

Consider “HMSLPALALRQADSLAFKQVIYHDRVVPFNTLARDFVLKLTGKPSYGGMTPEQVVGGWLLRPEVWQNEPM”, for which the “soluble fraction (log2)” value was determined as 0.00403. For “HMSLPAYIKISEVIARRINAGQILAGDRLPNERTMAVEFGVAVGTLRKALYHLQVRGLVTRKHGSGNYINK”, the “soluble fraction (log2)” value was 0.249. For “HMSLPKIVVPTDVTVSQLAKYLEVDAISIIKQLFGMGVVASLNQRLEDEIIQLIGNEFGKEIIFSE” the value was -0.107.

(Values after the domain aggregation screens of Martell et al. (2025).)
